Experiments:
[1] = molecular target: CLIP-170 (cytoplasmic linker protein 170) (UniProt P30622); assay: HA immunoprecipitation, CLIP-170 immunoblot; conditions: reference: HA-EB1 wild type; sites S40,T154,T206
p150glued = p150glued (UniProt Q14203); assay: HA immunoprecipitation, p150glued immunoblot; conditions: reference: HA-EB1 wild type; sites S40,T154,T206

binding against the reference [1]: weaker
binding against the reference (p150glued): weaker
Substance: EB1 (end-binding protein 1) (from UniProt Q15691) HA-EB1 3A (S40A/T154A/T206A)
